Assay results taken from patent US20150118747A1, “ELECTROSTRETCHED POLYMER MICROFIBERS FOR MICROVASCULATURE DEVELOPMENT” (The Johns Hopkins University, priority 2013, published 2015).

B1: plasmin: plasmin from human plasma (Athens Research and Technology), enzyme that degrades fibrin (protein, UniProt P00747 20-580; P00747 581-810, looked up)
Plasmin heavy chain A: EPLDDYVNTQGASLFSVTKKQLGAGSIEECAAKCEEDEEFTCRAFQYHSKEQQCVIMAENRKSSIIIRMRDVVLFEKKVYLSECKTGNGKNYRGTMSKTKNGITCQKWSSTSPHRPRFSPATHPSEGLEENYCRNPDNDPQGPWCYTTDPEKRYDYCDILECEEECMHCSGENYDGKISKTMSGLECQAWDSQSPHAHGYIPSKFPNKNLKKNYCRNPDRELRPWCFTTDPNKRWELCDIPRCTTPPPSSGPTYQCLKGTGENYRGNVAVTVSGHTCQHWSAQTPHTHNRTPENFPCKNLDENYCRNPDGKRAPWCHTTNSQVRWEYCKIPSCDSSPVSTEQLAPTAPPELTPVVQDCYHGDGQSYRGTSSTTTTGKKCQSWSSMTPHRHQKTPENYPNAGLTMNYCRNPDADKGPWCFTTDPSVRWEYCNLKKCSGTEASVVAPPPVVLLPDVETPSEEDCMFGNGKGYRGKRATTVTGTPCQDWAAQEPHRHSIFTPETNPRAGLEKNYCRNPDGDVGGPWCYTTNPRKLYDYCDVPQCAAPSFDCGKPQVEPKKCPGR
Plasmin light chain B: VVGGCVAHPHSWPWQVSLRTRFGMHFCGGTLISPEWVLTAAHCLEKSPRPSSYKVILGAHQEVNLEPHVQEIEVSRLFLEPTRKDIALLKLSSPAVITDKVIPACLPSPNYVVADRTECFITGWGETQGTFGAGLLKEAQLPVIENKVCNRYEFLNGRVQSTELCAGHLAGGTDSCQGDSGGPLVCFEKDKYILQGVTSWGLGCARPNKPGVYVRVSRFVTWIEGVMRNN
modifications: plasmin
notes: plasmin from human plasma (Athens Research and Technology), enzyme that degrades fibrin

Assays:
ECFCs [1] = assay: Actin and microtubule disruption studies, ECFCs on fibrin microfibers; type: cell-based, Human; conditions: for actin and microtubule organization, respectively / wrapping organization of the deposited ECM molecules compared to control cultures: ECFCs seeded on nanopatterned fibrin microfibers; for average angle of ECM orientation or variance of all angles, vs no drug: drug added 24 h after ECFC seeding on fibrin microfibers, 24 and 48 hrs of treatment
Procedure: The cell areas and perimeters were measured by fitting an ellipse to each cell using the LSM 510 software. Cytoskeletal alignment angle was calculated by measuring the angle between the long axis of each ellipse and the longitudinal axis of the microfiber, found by drawing a line at the edges of the microfiber in its image projection. ECM angle of orientation was measured using the LSM 510 software by drawing a line following the ECM deposition and finding the angle between the line and the longitudinal axis of the microfiber. Graphs were plotted with 5-95% confidence intervals. Unpaired two-tailed Welch-corrected t-tests were performed where appropriate (GraphPad Prism® 5.01, GraphPad Software, San Diego, Calif.). Significance levels were determined between samples examined and were set at *p<0.05, **p<0.01, and ***p<0.001.
Cytochalasin D or nocodazole were dissolved in DMSO (Table 1). ECFCs were cultured on Petri dishes (control) or fibrin microfibers in ECFC media with 50 ng/mL of VEGF (Pierce, Rockford, Ill., USA) supplemented with either […] cytochalasin D or […] nocodazole, from either day 0 or day 1 after seeding. F-actin or a-tubulin organization and ECM deposition was analyzed after 1, 2, or 3 days of treatment. Final concentration of DMSO in cell culture medium was kept at 0.1% (v/v). Controls were treated with DMSO alone at the same concentration.

ECFCs [2] = assay: Live/Dead assay of ECFCs after plasmin treatment; type: cell-based; conditions: for cell viability: confluent ECFCs, data not shown; for live cells: confluent ECFCs in 2D, serum-free
Procedure: (§1) Fibrin microfibers with or without cells were treated with 15, 1, 0.25, and 0.1 CU/mL plasmin from human plasma (Athens Research and Technology, Athens, Ga.) in DMEM (Life Technologies, Grand Island, N.Y.) for 1, 6, 12, and 24 hrs respectively in a humidified incubator at 37° C. in a 5% CO2 atmosphere. Samples were imaged immediately after treatment.
ECFCs cultured in 2D and treated with plasmin were incubated with 2 μM calcein AM and 4 μM ethidium homodimer (Invitrogen) in PBS for 30 min at 37° C. and 5% CO2. Samples were imaged immediately after and the number of live and dead cells was counted using ImageJ (NIH, Bethesda, Md.).

fibrin microfibers = assay: Plasmin treatment: degradation of fibrin microfibers without cells; type: biochemical; conditions: serum-free media
Procedure: as §1
The fibrin microfiber core was degraded after endothelial cell (EC) layer formation while maintaining both cellular viability and intact ECM organization. Fibrin microfibers without cells were treated with different concentrations of plasmin.

| Molecule | actin and microtubule organization, respectively (ECFCs [1]) | wrapping organization of the deposited ECM molecules compared to control cultures (ECFCs [1]) | average angle of ECM orientation or variance of all angles, vs no drug (ECFCs [1]) | cell viability (ECFCs [2]; 1 hr treatment (15 CU/mL plasmin)) | cell viability (ECFCs [2]; 6 hr treatment (1 CU/mL plasmin)) | live cells (ECFCs [2]; 12 hr treatment (0.25 CU/mL plasmin)) [%] | live cells (ECFCs [2]; 24 hr treatment (0.1 CU/mL plasmin)) [%] | time in which plasmin degraded the microfibers (fibrin microfibers; 0.1 CU/mL plasmin) [h] | time in which plasmin degraded the microfibers (fibrin microfibers; 0.25 CU/mL plasmin) [h] | time in which plasmin degraded the microfibers (fibrin microfibers; 1 CU/mL plasmin) [h] | time in which plasmin degraded the microfibers (fibrin microfibers; 15 CU/mL plasmin) |
| --- | --- | --- | --- | --- | --- | --- | --- | --- | --- | --- | --- |
| C=C1[C@@H](C)[C@H]2[C@H](Cc3ccccc3)NC(=O)[C@]23[C@H](OC(C)=O)/C=C/[C@@](C)(O)C(=O)[C@@H](C)C/C=C/[C@H]3[C@@H]1O [Cytochalasin D] | effectively altered | did not alter | No difference |  |  |  |  |  |  |  |  |
| COC(=O)Nc1nc2ccc(C(=O)c3cccs3)cc2[nH]1 [nocodazole] | effectively altered | did not alter | no difference |  |  |  |  |  |  |  |  |
| B1 |  |  |  | poor cell viability | poor cell viability | 80.6±4.3 | 65.2±1.8 | ~24 | ~12 | ~6 | about 1 hrs |
